The results in this text go back to patent US20140056903A1 (Regeneron, published 2014).

As usually defined, the Kd is the equilibrium constant for the complex coming apart. High values mean lower affinity, low ones higher affinity. The term koff denotes the first-order rate constant of dissociation. A higher koff goes with a short-lived complex. As a reminder, the kon is the second-order rate constant of association. A high value points to fast association.

Assay [1] concerns the target T1, human GFRα3 expressed with a C-terminal myc-myc-hexahistidine tag (human, UniProt O60609 32-374, biotinylated (sites not given) in ELISA format 2 and in the Octet cross-competition; not in SPR).
T1 construct: also called hGFRα3-mmh; hGFRα3-mmH
Put plainly: SPR, Ab captured, 25C. How it is done:
(§1) Antibodies were tested for binding to human GFRα3 expressed with either a C-terminal myc-myc-hexahistidine tag (hGFRα3-mmh; SEQ ID: 370, a C-terminal hFc tag (hGFRα3-hFc; SEQ ID:371), or a C-terminal mFc tag (hGFRα3-mFc; SEQ ID:372), as well as monkey GFRα3 expressed with a C-terminal myc-myc-hexahistidine tag (MfGFRα3-mmh; SEQ ID:373). Anti-GFRα3 antibodies were captured on either a goat anti-mouse IgG polyclonal antibody (GE Healthcare, #BR-1008-38) or a mouse anti-human IgG monoclonal antibody (GE Healthcare, #BR-1008-39) surface created through direct amine coupling to a Biacore CM5 sensor chip. Kinetic experiments were carried out using HBS-EP (10 mM HEPES, 150 mM NaCl, 3 mM EDTA, 0.05% Surfactant P20, at pH 7.4) or PBS buffer containing 0.05% v/v surfactant P20 as both the running buffer and the sample buffer. Binding to human GFRα3-mmh or monkey GFRα3-mmh was evaluated by injecting several concentrations ranging from 200 to 7.4 nM (3-fold dilutions) across the captured antibody surface. Binding to human GFRα3-mFc or human GFRα3-hFc was evaluated by injecting several concentrations ranging from 100 to 3.7 nM (3-fold dilutions) across the captured antibody surface. Antibody-antigen association was monitored for up to 4 minutes, while dissociation in buffer was monitored for up to 20 minutes. Kinetic association (kₐ) and dissociation (kd) rate constants were determined by processing and fitting the data to a 1:1 binding model using Scrubber 2.0c curve fitting software. Binding dissociation equilibrium constants (KD) and dissociative half-lives (t_{1/2}) were calculated from the kinetic rate constants as: KD (M)=kd/kₐ and t_{1/2} (min)=[ln 2/(60*kd)].

The target in assay [2] is T2, human GFRα3 expressed with a C-terminal mFc tag (human).
T2 construct: also called hGFRα3-mFc
T2 chain: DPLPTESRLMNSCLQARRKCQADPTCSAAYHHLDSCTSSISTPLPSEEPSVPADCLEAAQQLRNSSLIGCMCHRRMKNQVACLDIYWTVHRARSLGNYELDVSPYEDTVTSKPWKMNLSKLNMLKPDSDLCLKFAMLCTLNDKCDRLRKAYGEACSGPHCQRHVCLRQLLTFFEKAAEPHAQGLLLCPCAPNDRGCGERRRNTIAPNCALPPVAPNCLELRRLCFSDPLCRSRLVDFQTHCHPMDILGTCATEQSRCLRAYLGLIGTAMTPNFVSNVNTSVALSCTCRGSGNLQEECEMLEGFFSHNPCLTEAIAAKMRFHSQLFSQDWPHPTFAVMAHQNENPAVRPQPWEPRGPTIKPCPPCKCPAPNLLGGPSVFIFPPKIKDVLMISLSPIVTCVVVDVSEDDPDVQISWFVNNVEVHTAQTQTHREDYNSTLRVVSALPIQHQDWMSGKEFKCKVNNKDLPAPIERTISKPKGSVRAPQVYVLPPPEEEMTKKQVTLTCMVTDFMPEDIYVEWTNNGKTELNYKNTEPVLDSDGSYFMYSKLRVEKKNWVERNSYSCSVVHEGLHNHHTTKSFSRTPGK
In words: SPR, Ab captured, 25C. How it is done:
as §1
(SPR reads the build-up and loss of mass on a sensor chip optically.)

Assay [3] concerns the target T1, human GFRα3 expressed with a C-terminal …. Put plainly: Octet cross-competition; biotin-hGFRα3-mmH pre-saturated with first antibody H4H2357S. As to the method: (§2) A cross-competition assay was conducted to assess the ability of select antibodies to compete with one another for binding to human GFRα3 using an Octet RED384 biosensor (Fortebio Inc.). The entire experiment was performed at 25° C. with the flow rate of 1000 rpm in Octet HBST buffer (0.01 M HEPES pH7.4, 0.15M NaCl, 3 mM EDTA, 0.05% v/v Surfactant P20, 0.1 mg/mL BSA). To assess whether 2 antibodies were able to compete with one another for binding to their respective epitopes on biotinylated recombinant human GFRα3 expressed with a C-terminal myc-myc-hexahistidine tag (biotin-hGFRα3-mmH; SEQ ID:370), around ˜1.2 nm of biotin-hGFRα3-mmH was first captured onto streptavidin-coated Octet sensor tips (Fortebio Inc, #18-5019) by submerging the tips for 1 minute into a 10 μg/mL solution of biotin-hGFRα3-mmH. The antigen coated sensor tips were then placed into wells containing 25 μg/mL solution of a first anti-GFRα3 monoclonal antibody for 4 minutes to saturate the biotin-hGFRα3-mmH surface. The sensor tips were then subsequently dipped into wells containing 25 μ/mL solution of a second anti-GFRα3 monoclonal antibody. The sensor tips were washed in Octet HBST buffer in between every step of the experiment. The real-time binding response was monitored during the course of the experiment and the binding response at the end of every step was recorded as shown in FIG. 9. The response of mAb-2 binding to biotin-hGFRα3-mmH pre-complexed with the first antibody was compared and competitive/non-competitive behavior of different anti-GFRα3 monoclonal antibodies was determined.
In general terms: In BLI a coated tip is dipped into the sample, and binding shifts an interference pattern.

Assay [4] has the same target. Put plainly: Octet cross-competition; biotin-hGFRα3-mmH pre-saturated with first antibody H4H2294S. As to the method:
as §2

Assay [5] shares this target. Put plainly: Octet cross-competition; biotin-hGFRα3-mmH pre-saturated with first antibody H4H2355S. How it is done:
as §2

Assay [6] shares this target. In words: Octet cross-competition; biotin-hGFRα3-mmH pre-saturated with first antibody H4H2342P. How it is done: as §2
The target is the same in assay [7]. In words: Octet cross-competition; biotin-hGFRα3-mmH pre-saturated with first antibody H4H2236N3. As to the method: as §2

B1: H4H2364S (antibody, human IgG4, V domains shown)
VH: EVQLVESGGGLEQPGGSLRLSCAASGFTFSSYVMSWVRQVPGKGLEWVSVISGSGGSTYYADSVKGRFTISRDNSKNTLYLQMNSLRAEDTAVYYCAKPSSYSSSNFHYGMDVWGQGTTVTVSS
VL: DIQMTQSPYSVSASVGDRVTITCRASQGISSWLAWYQQKPGRAPKLLIYAASSLQSGVPSRFSGSGSGTDFTLTISSLQPEDFATYYCQKTNSFPFTFGPGTKVEIK
notes: human IgG4 Fc (H4H)
In assay [1], B1 returned a Kd of 0.104 nM, a koff of 3.67e-05 s⁻¹, a kon of 353000 M⁻¹ s⁻¹ and a t1/2 of 5.25 h. Moreover, in assay [2], the Kd is not above 0.0013 nM, the koff is not above 1e-06 s⁻¹, the kon turned out to be 771000 M⁻¹ s⁻¹ and the t1/2 worked out at 192 h.

B2: H4H2344S (antibody, human IgG4, V domains shown)
VH: EVQLVESGGGVVQPGRSLRLSCAASGFSFSDYVMHWVRQAPGKGLEWVASIWFDGSNEFYADSVKGRFTISRDNSKNTLFLQMNSLRAEDTAVYYCAKKGVLVATSAFDIWGQGTMVTVSS
VL: DIQMTQSPSSLSASVGDRVTITCRASQSINNYLNWYHQKPGKAPKLLIYAASSLQSGVPSRFSGSGSGTDYTLTISSLQPEDFGNYYCQQSYRTSMYTFGQGTKVEIK
notes: human IgG4 Fc (H4H)
In assay [1], B2 yielded a Kd of 1.31 nM, a koff of 0.00024 s⁻¹, a kon of 183000 M⁻¹ s⁻¹ and a t1/2 of 0.8 h. Further, in assay [2], the Kd came to 0.00269 nM, the koff was determined as 1.56e-06 s⁻¹, the kon was 579000 M⁻¹ s⁻¹ and the t1/2 is 123 h.

B3: H4H2293P (antibody, human IgG4, V domains shown)
VH: QVQLVESGGGVVQPGRSLRLSCAASGFSFSDYVMHWVRQAPGKGLEWVASIWFDGSNELYADSVKGRFTISRDNSKNTLFLQMNSLRAEDTAVYYCAKKGVLVATSAFHIWGQGTMVTVSS
VL: AIQMTQSPSSLSASVGDRVTITCRASQNINNYLNWYHQKPGKAPNLLIYAASSLQSGVPSRFSGSGSGTDYTLTISSLQPEDFGNYYCQQSYSTSMYTFGQGTKLEIK
notes: human IgG4 Fc (H4H)
In assay [1], B3 gave a Kd of 0.219 nM, a koff of 0.000127 s⁻¹, a kon of 581000 M⁻¹ s⁻¹ and a t1/2 of 1.52 h. In assay [2], this molecule yielded a Kd of 0.00159 nM, a koff of 1.93e-06 s⁻¹, a kon of 1.22e+06 M⁻¹ s⁻¹ and a t1/2 of 99.8 h.

B4: H4H2354S (antibody, human IgG4, V domains shown)
VH: QVQLVESGGGVVQPGRSLRLSCAASGFSFSDYVMHWVRQAPGKGLEWVASIWFDGSNEFYADSVKGRFTISRDNSKNTLFLQMNSLRAEDTAVYYCAKKGVLVATSAFDIWGQGTMVTVSS
VL: DIQLTQSPSSLSASVGDRVTITCRASQSINNYLNWYHQKPGKAPKLLIYAASSLQSGVPSRFSGSGSGTDYTLTISSLQPEDFGNYYCQQSYRTSMYTFGQGTKVEIK
notes: human IgG4 Fc (H4H); also called H4H2354S-1
In assay [1], B4 registered a Kd of 0.548 nM, an off-rate constant (koff) of 0.00011 s⁻¹, an association rate constant (kon) of 200000 M⁻¹ s⁻¹ and a t1/2 of 1.75 h. Also, in assay [2], binding was put at a Kd of 0.0189 nM, the dissociation rate constant (koff) stood at 1.09e-05 s⁻¹, the kon came to 580000 M⁻¹ s⁻¹ and the t1/2 was 17.6 h.

B5: H4H2346S (antibody, human IgG4, V domains shown)
VH: QVQLVESGGGVVQPGRSLRLSCAASGFSFSDYVMHWVRQAPGKGLEWVASIWFDGSNEFYADSVKGRFTISRDNSKNTLFLQMNSLRAEDTAVYYCAKKGVLVATSAFDIWGQGTMVTVSS
VL: EIVMTQSPSSLSASVGDRVTITCRASQSINNYLNWYHQKPGKAPKLLIYAASSLQSGVPSRFSGSGSGTDYTLTISSLQPEDFGNYYCQQSYRTSMYTFGQGTKVEIK
notes: human IgG4 Fc (H4H)
In assay [1], B5 returned a Kd of 0.43 nM, a koff of 7.99e-05 s⁻¹, a kon of 186000 M⁻¹ s⁻¹ and a t1/2 of 2.42 h. In assay [2], this molecule came in with a Kd of 0.0222 nM, a koff of 1.44e-05 s⁻¹, a kon of 647000 M⁻¹ s⁻¹ and a t1/2 of 13.4 h.

B6: H4H2341S (antibody, human IgG4, V domains shown)
VH: EVQLVESGAEVKKSGSSVKVSCKASGGTFSRYAISWVRQAPGQGLEWMGGIIPLFGTLNYAQKFQGRVTLTTDESTSTAYMELSSLRSEDTAVYYCAVFYYGSGSYRNWFDPWGQGTLVTVSS
VL: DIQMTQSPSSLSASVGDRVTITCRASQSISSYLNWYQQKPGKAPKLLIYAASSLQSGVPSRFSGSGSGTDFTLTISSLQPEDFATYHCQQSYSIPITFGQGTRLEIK
notes: human IgG4 Fc (H4H)
Turning to B6, in assay [1], the Kd turned out to be 1.68 nM, the koff amounted to 0.000267 s⁻¹, the kon came to 159000 M⁻¹ s⁻¹ and the t1/2 was 0.717 h. In assay [2], this molecule gave a Kd not above 0.00168 nM, a koff not above 1e-06 s⁻¹, a kon of 596000 M⁻¹ s⁻¹ and a t1/2 of 192 h.

B7: H4H2345S (antibody, human IgG4, V domains shown)
VH: EVQLVESGGGLVRPGRSLRLSCAASGFTFDNYAMHWVRQVPGKGLEWVSGITWNSVSLGYADSVKGRFTISRDNAQNSLYLQMNSLRTVDTALYYCAKDRWGGSYYFDFWGQGTLVTVSS
VL: DIVMTQSPSSLSASVGDRVTITCRASQGISNYLAWYQQKPGKVPKLLIYSASTLQSGVPSRFSGSGSGTDFTLTISNLQPEDFATFFCQKYNSAPTFGGGTKVEIK
notes: human IgG4 Fc (H4H)
In the case of B7, in assay [1], the Kd turned out to be 29.7 nM, the koff was 0.00323 s⁻¹, the kon came out at 109000 M⁻¹ s⁻¹ and the t1/2 amounted to 0.0667 h. In addition, in assay [2], the Kd came out at 0.0584 nM, the koff stood at 3.01e-05 s⁻¹, the kon is 516000 M⁻¹ s⁻¹ and the t1/2 was found to be 6.4 h.

B8: H4H2212N (antibody, human IgG4, V domains shown)
VH: EVQLLESGGGLVQPGGSLRLSCAASGFTFSSYAMSWVRQGPGKGLEWVSGISGSGGSTYNADSVKGRFTISRDNSKNTLYLQMNSLRAEDTAVYYCAKDSGTYWYYFDYWGQGILVTVSS
VL: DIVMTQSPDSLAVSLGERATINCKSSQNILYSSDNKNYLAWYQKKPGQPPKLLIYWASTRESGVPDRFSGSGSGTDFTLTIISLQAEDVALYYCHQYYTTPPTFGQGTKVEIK
notes: human IgG4 Fc (H4H)
In the case of B8, the “binding response of second antibody (nm)” value is 1.9 nm in assay [3]; 1.92 nm in assay [4]; 1.95 nm in assay [5]; 1.76 nm in assay [6]; 1.79 nm in assay [7].
